Target: the molecule itself
Assay: cryo-EM structure; T4aP^Mx filaments purified from the hyperpiliated ΔpilT strain; helical reconstruction, twist 100.7°, rise 10 Å per subunit, 3.0 Å

B1: major pilin PilA of Myxococcus xanthus (mature PilA, MXAN_5783) (natural protein, UniProt Q59589 13-220, looked up)
chain: FTLIELMIVVAIIGILAAIAIPNFIKFQARSKQSEAKTNLKALYTAQKSFFSEKDRYSDFANEIGFAPERGNRYGYRVSAAAGDCEVRNAADLPVPAAGVPCISNDSFRFGANSAIDDPTPVVARFVPQGAAGWNTTLGVQPTIADCPNCNFFAGARGNADNEATFDDWVIAGFEGSGQVGPCSEAGNVASGTPYNTRNDVACDGAAQ
notes: PilA, major type IVa pilin of Myxococcus xanthus, MXAN_5783; mature pilin of 208 aa after removal of the type III signal peptide by PilD; numbers count on: the mature protein; Assembled as the T4aP filament of thousands of copies; Disulfide bridges C95/C102 and C183/C203; the authors speculate that surface-exposed C150 is post-translationally modified; also called PilA^WT; Mx PilA; source: …
Does B1 bind?
Result: binds
